Reference: patent US20160193299A1, “MODIFIED NUCLEOSIDE, NUCLEOTIDE, AND NUCLEIC ACID COMPOSITIONS” (Moderna Therapeutics, Inc., priority 2011, published 2016)

Experiments:
[1] = system: mouse myoblast (C2C12); experiment: Example 44 signal sequence exchange study, secreted G-CSF ELISA; format: cell-based; settings: MM, 250 ng modified mRNA, supernatant after 24 hrs
From the text: (§1) These variants included the G-CSF constructs encoding either the wild-type N terminal secretory signal peptide sequence ([…]; SEQ ID NO: 21), no secretory signal peptide sequence, or secretory signal peptide sequences taken from other mRNAs. These included sequences where the wild type GCSF signal peptide sequence was replaced with the signal peptide sequence of either: human α-1-anti trypsin (AAT) ([…]; SEQ ID NO: 22), human Factor IX (FIX) ([…]; SEQ ID NO: 23), human Prolactin (Prolac) ([…]; SEQ ID NO: 24), or human Albumin (Alb) ([…]; SEQ ID NO: 25).
(§2) 250 ng of modified mRNA encoding each G-CSF variant was transfected into HEK293A (293A in the table), mouse myoblast (MM in the table) (C2C12, CRL-1772, ATCC) and rat myoblast (RM in the table) (L6 line, CRL-1458, ATCC) cell lines in a 24 well plate using 1 ul of Lipofectamine 2000 (Life Technologies), each well containing 300,000 cells. […] The data shown in Table 68 reveal that cells transfected with G-CSF mmRNA encoding the Albumin signal peptide secrete at least 12 fold more G-CSF protein than its wild type counterpart.

[2] = system: rat myoblast (L6 line); experiment: as above; format: cell-based; settings: RM, 250 ng modified mRNA, supernatant after 24 hrs
From the text: as §1, §2

[3] = system: HEK293A; experiment: as above; format: cell-based, human; settings: 293A, 250 ng modified mRNA, supernatant after 24 hrs
From the text: as §1, §2

[4] = system: Human primary foreskin fibroblasts (BJ fibroblasts); experiment: Innate immune response transcripts in BJ fibroblasts, single transfection (qPCR); format: cell-based; settings: 250 ng, 18 hours
Method: The cells were harvested after 18 hours, the total RNA was isolated and DNASE® treated using the RNeasy micro kit (catalog #74004) following the manufacturer's protocol. 100 ng of total RNA was used for cDNA synthesis using High Capacity cDNA Reverse Transcription kit (catalog #4368814) following the manufacturer's protocol. The cDNA was then analyzed for the expression of innate immune response genes by quantitative real time PCR using SybrGreen in a Biorad CFX 384 instrument following manufacturer's protocol. […] In the table, the panel of standard metrics includes: RIG-I is retinoic acid inducible gene 1, IL6 is interleukin-6, OAS-1 is oligoadenylate synthetase 1, IFNb is interferon-beta, AIM2 is absent in melanoma-2, IFIT-1 is interferon-induced protein with tetratricopeptide repeats 1, PKR is protein kinase R, TNFa is tumor necrosis factor alpha and IFNa is interferon alpha.

[5] = system: HEK293 cells; experiment: In vitro expression of VEGF modified mRNA (ELISA); format: cell-based
[6] = system: Female BALB/C mice; experiment: In vivo detection of innate immune response: human G-CSF and mouse IFN-alpha in serum after I.M. injection
Method: Blood is collected at 8 hours after dosing and using ELISA the protein levels of G-CSF and interferon-alpha (IFN-alpha) is determined by ELISA and are shown in Table 81.

[7] = system: Human primary foreskin fibroblasts (BJ fibroblasts); experiment: Innate immune response in BJ fibroblasts, repeat transfection: cytokine response; format: cell-based
[8] = system: mice; experiment: In vivo cytokine expression study (serum IFN-alpha); settings: mouse serum; I.M. 200 ug mRNA; after 8 hours
Method: After 8 hours serum was collected from the mice and analyzed for interferon-alpha (IFN-alpha) expression.

[9] = Stability of modified RNA on storage (gel electrophoresis); format: physicochemical; settings: gel electrophoresis
Method: Stability experiments were conducted to obtain a better understanding of storage conditions to retain the integrity of modified RNA. […] After the mRNA had been stored for 0 hours, 2 hours, 6 hours, 24 hours, 48 hours, 5 days and 14 days, the mRNA was analyzed by gel electrophoresis using a Bio-Rad EXPERION′ system. The modified, unmodified and lipoplexed G-CSF mRNA was also stored in RNASTABLE® (Biomatrica, Inc. San Diego, Calif.) at 40° C. or water at −80° C. or 40° C. for 35 days before being analyzed by gel electrophoresis.
mRNA samples stored at 4° C., 25° C. and 37° C. were stored in 1× TE buffer or the formulation buffer (150 mM sodium chloride, 2 mM calcium chloride, 2 mM phosphate, 0.5 mM EDTA at a pH of 6.5). The mRNA stored at 4° C. was stable to at least 60 days in both the TE and formulation buffer. At 25° C. the mRNA in formulation buffer was stable out to 14 days and the TE buffer was stable out to at least 6 days. Storage of mRNA in the formulation buffer at 37° C. was stable to 6 days compared to the TE buffer which was stable only until 4 days.

Albumin
secreted G-CSF protein [1]: 81050 pg/mL
secreted G-CSF protein [2]: 173300 pg/mL
secreted G-CSF protein [3]: 122050 pg/mL

Natural Luciferase: natural luciferase mRNA SEQ ID NO: 16, Cap1
AIM2 transcript level [4]: 0.251 fold-induction relative to HPRT
IFIT-1 transcript level [4]: 151.218 fold-induction relative to HPRT
IFNa transcript level [4]: 0.067 fold-induction relative to HPRT
IFNb transcript level [4]: 11.404 fold-induction relative to HPRT
IL6 transcript level [4]: 20.6 fold-induction relative to HPRT
OAS-1 transcript level [4]: 20.778 fold-induction relative to HPRT
PKR transcript level [4]: 16.001 fold-induction relative to HPRT
RIG-I transcript level [4]: 71.5 fold-induction relative to HPRT
TNFa transcript level [4]: 0.526 fold-induction relative to HPRT

Prolactin
secreted G-CSF protein [1]: 1525 pg/mL
secreted G-CSF protein [2]: 9800 pg/mL
secreted G-CSF protein [3]: 7875 pg/mL

α-1-anti trypsin
secreted G-CSF protein [1]: 5000 pg/mL
secreted G-CSF protein [2]: 8475 pg/mL
secreted G-CSF protein [3]: 9950 pg/mL

B1: VEGF-A: modified mRNA VEGF-A SEQ ID NO: 19, Cap1, fully modified with 5-methylcytosine and pseudouridine, Lipofectamine2000 complexed (nucleic acid, listed as Homo sapiens)
sense: GGGAAAUAAGAGAGAAAAGAAGAGUAAGAAGAAAUAUAAGAGCCACCAUGAACUUUCUCUUGUCAUGGGUGCACUGGAGCCUUGCGCUGCUGCUGUAUCUUCAUCACGCUAAGUGGAGCCAGGCCGCACCCAUGGCGGAGGGUGGCGGACAGAAUCACCACGAAGUAGUCAAAUUCAUGGACGUGUACCAGAGGUCGUAUUGCCAUCCGAUUGAAACUCUUGUGGAUAUCUUUCAAGAAUACCCCGAUGAAAUCGAGUACAUUUUCAAACCGUCGUGUGUCCCUCUCAUGAGGUGCGGGGGAUGCUGCAAUGAUGAAGGGUUGGAGUGUGUCCCCACGGAGGAGUCGAAUAUCACAAUGCAAAUCAUGCGCAUCAAACCACAUCAGGGUCAGCAUAUUGGAGAGAUGUCCUUUCUCCAGCACAACAAAUGUGAGUGUAGACCGAAGAAGGACCGAGCCCGACAGGAAAACCCAUGCGGACCGUGCUCCGAGCGGCGCAAACACUUGUUCGUACAAGACCCCCAGACAUGCAAGUGCUCAUGUAAGAAUACCGAUUCGCGGUGUAAGGCGAGACAGCUGGAAUUGAACGAGCGCACGUGUAGGUGCGACAAGCCUAGACGGUGAGCUGCCUUCUGCGGGGCUUGCCUUCUGGCCAUGCCCUUCUUCUCUCCCUUGCACCUGUACCUCUUGGUCUUUGAAUAAAGCCUGAGUAGGAAG
modifications: Cap1, polyA, 5mC/pseudoU, Lipofectamine2000 complexed
Protein ([5]; amount transfected 2 pg): 0 pg/mL
Protein ([5]; amount transfected 10 pg): 0 pg/mL
Protein ([5]; amount transfected 39 pg): 0 pg/mL
Protein ([5]; amount transfected 156 pg): 189.6 pg/mL
Protein ([5]; amount transfected 625 pg): 2321.23 pg/mL
Protein ([5]; amount transfected 2.5 ng): 10038 pg/mL
Protein ([5]; amount transfected 10 ng): 10495 pg/mL
Protein ([5]; amount transfected 610 fg): 0 pg/mL

B2: G-CSF unmodified: unmodified G-CSF mRNA SEQ ID NO: 6, Cap1 (nucleic acid, listed as Homo sapiens)
chain: GGGAAAUAAGAGAGAAAAGAAGAGUAAGAAGAAAUAUAAGAGCCACCAUGGCCGGUCCCGCGACCCAAAGCCCCAUGAAACUUAUGGCCCUGCAGUUGCUGCUUUGGCACUCGGCCCUCUGGACAGUCCAAGAAGCGACUCCUCUCGGACCUGCCUCAUCGUUGCCGCAGUCAUUCCUUUUGAAGUGUCUGGAGCAGGUGCGAAAGAUUCAGGGCGAUGGAGCCGCACUCCAAGAGAAGCUCUGCGCGACAUACAAACUUUGCCAUCCCGAGGAGCUCGUACUGCUCGGGCACAGCUUGGGGAUUCCCUGGGCUCCUCUCUCGUCCUGUCCGUCGCAGGCUUUGCAGUUGGCAGGGUGCCUUUCCCAGCUCCACUCCGGUUUGUUCUUGUAUCAGGGACUGCUGCAAGCCCUUGAGGGAAUCUCGCCAGAAUUGGGCCCGACGCUGGACACGUUGCAGCUCGACGUGGCGGAUUUCGCAACAACCAUCUGGCAGCAGAUGGAGGAACUGGGGAUGGCACCCGCGCUGCAGCCCACGCAGGGGGCAAUGCCGGCCUUUGCGUCCGCGUUUCAGCGCAGGGCGGGUGGAGUCCUCGUAGCGAGCCACCUUCAAUCAUUUUUGGAAGUCUCGUACCGGGUGCUGAGACAUCUUGCGCAGCCGUGAAGCGCUGCCUUCUGCGGGGCUUGCCUUCUGGCCAUGCCCUUCUUCUCUCCCUUGCACCUGUACCUCUUGGUCUUUGAAUAAAGCCUGAGUAGGAAG
modifications: Cap1
PC Ratio ([6]; Protein:Cytokine ratio, G-CSF / IFN-alpha in mouse serum): 9
G-CSF protein ([6]; human G-CSF in mouse serum, I.M., 200 ug/mouse mRNA (R848 75 ug) in 5% sucrose, 8 hours after dosing): 605.6 pg/mL
IFN-alpha expression ([6]; mouse IFN-alpha in serum, I.M., 200 ug/mouse mRNA (R848 75 ug), 8 hours after dosing): 67.01 pg/mL
IFN-beta ([7]; 250 ng transfected daily for 5 days, 6 hours): 0 pg/mL
IL-6 ([7]; daily transfection, 6 hours): 3596 pg/mL
IFN-beta ([7]; daily transfection, Day 1): 1363 pg/mL
IL-6 ([7]; daily transfection, Day 1): 15207 pg/mL
IFN-beta ([7]; daily transfection, Day 2): 238 pg/mL
IL-6 ([7]; daily transfection, Day 2): 12415 pg/mL
IFN-beta ([7]; daily transfection, Day 3): 225 pg/mL
IL-6 ([7]; daily transfection, Day 3): 5017 pg/mL
IFN-beta ([7]; daily transfection, Day 4): 363 pg/mL
IL-6 ([7]; daily transfection, Day 4): 4267 pg/mL
IFN-beta ([7]; daily transfection, Day 5): 225 pg/mL
IL-6 ([7]; daily transfection, Day 5): 3094 pg/mL
IFN-alpha [8]: 67.012 pg/mL
stable out to (storage time) ([9]; stored at 25 C): 48 h
stable out to (storage time) ([9]; stored at 37 C): 6 h
stable out to (storage time) ([9]; stored at 50 C): 2 h
